Test results taken from patent US20160251440A1 (Ablynx, published 2016).

Key:
[1] = target: T1, human IL-23R, cell-expressed (human, UniProt Q5VWK5 24-629); assay: cell-based or functional assay
T1 sequence (looked up): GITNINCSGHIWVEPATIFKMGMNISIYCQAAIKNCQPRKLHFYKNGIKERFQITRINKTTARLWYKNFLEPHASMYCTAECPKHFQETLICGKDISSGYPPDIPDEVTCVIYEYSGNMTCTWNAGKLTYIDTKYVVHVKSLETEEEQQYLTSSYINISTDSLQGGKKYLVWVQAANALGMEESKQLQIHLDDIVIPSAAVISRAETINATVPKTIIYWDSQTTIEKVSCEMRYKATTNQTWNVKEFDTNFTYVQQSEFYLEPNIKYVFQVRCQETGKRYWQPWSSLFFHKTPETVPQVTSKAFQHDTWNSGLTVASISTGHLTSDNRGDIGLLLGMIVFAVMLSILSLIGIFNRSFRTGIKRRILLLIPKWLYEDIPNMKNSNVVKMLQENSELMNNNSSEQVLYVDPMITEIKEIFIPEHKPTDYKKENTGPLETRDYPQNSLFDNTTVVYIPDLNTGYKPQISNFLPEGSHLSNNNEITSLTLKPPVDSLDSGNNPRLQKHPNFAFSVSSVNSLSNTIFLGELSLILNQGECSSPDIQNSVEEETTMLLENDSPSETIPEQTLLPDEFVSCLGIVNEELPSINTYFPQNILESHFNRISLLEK

[2] = target: T2, human IL-23R extracellular domain Fc-fusion (human, UniProt Q5VWK5 24-355); assay: competition ELISA, coated IL-23 + 5 nM IL-23R-Fc
T2 construct: extracellular domain; bought; also called IL-23R-Fc
T2 sequence (looked up): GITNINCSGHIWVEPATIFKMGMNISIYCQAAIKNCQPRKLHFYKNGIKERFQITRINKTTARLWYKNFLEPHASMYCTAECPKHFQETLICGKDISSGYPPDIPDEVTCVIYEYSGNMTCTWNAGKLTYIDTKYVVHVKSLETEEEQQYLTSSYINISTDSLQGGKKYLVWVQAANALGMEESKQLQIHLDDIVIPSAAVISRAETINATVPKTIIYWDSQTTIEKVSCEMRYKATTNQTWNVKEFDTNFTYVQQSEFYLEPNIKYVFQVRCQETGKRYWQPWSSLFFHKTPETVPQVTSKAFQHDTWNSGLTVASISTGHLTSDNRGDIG

[3] = target: T1, human IL-23R, cell-expressed; assay: FACS, Th17-differentiated T cells
[4] = target: T3, human IL12Rβ1, cell-expressed (human, UniProt P42701 24-662); assay: flow cytometry on isolated CD8+ T cells of donor D863, anti-Flag detection
T3 construct: whole, on cells; in the context of the heterodimeric receptor; also called IL12Rb1

[5] = target: T4, human CD4, cell-expressed (human, UniProt P01730 26-458); assay: flow cytometry on MOLM-13 cells (CD4, no IL12R or IL23R), upper right panel
T4 construct: whole, on cells

[6] = target: T2, human IL-23R extracellular domain …; assay: SPR Biacore T100, captured IL-23R-Fc
[7] = target: T2, human IL-23R extracellular domain …; assay: competition ELISA, coated IL-23 + IL-23R-Fc; IL-23 competition ELISA of Table 3.3
[8] = target: T5, CXCR4 and CD4 co-expressed on cells (MOLM-13, THP-1, MT-4, PBMC; Jurkat CD4 low) (human, UniProt P61073 1-352; P01730 26-458); assay: cell-based or functional assay
T5 sequence (P61073 whole entry, chain 1 of 2, other chains not shown): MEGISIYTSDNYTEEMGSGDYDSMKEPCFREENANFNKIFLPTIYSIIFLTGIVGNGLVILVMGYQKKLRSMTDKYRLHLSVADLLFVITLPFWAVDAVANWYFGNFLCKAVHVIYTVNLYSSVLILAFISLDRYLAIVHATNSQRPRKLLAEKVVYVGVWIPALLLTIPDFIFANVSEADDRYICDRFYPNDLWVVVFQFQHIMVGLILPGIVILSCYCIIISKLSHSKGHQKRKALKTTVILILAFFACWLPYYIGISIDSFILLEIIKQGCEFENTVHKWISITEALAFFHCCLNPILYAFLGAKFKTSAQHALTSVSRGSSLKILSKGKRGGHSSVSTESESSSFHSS

[9] = target: T5, CXCR4 and CD4 co-expressed on cells …; assay: FACS, MOLM-13 cells (CXCR4+/CD4+)
[10] = target: T5, CXCR4 and CD4 co-expressed on cells …; assay: FACS, Jurkat E6-1 cells (CXCR4+/CD4 low)
[11] = target: T5, CXCR4 and CD4 co-expressed on cells …; assay: cell-based or functional assay; remark: listed apart in the source
[12] = target: T5, CXCR4 and CD4 co-expressed on cells …; assay: cell-based or functional assay; remark: listed apart in the source
[13] = target: T5, CXCR4 and CD4 co-expressed on cells …; assay: FACS, THP-1 cells
[14] = target: human CXCR4 (on cells, viral lipoparticles or membrane extracts) (human, UniProt P61073 1-352); assay: cell-based or functional assay
human CXCR4 (on cells, viral lipoparticles or membrane extracts), sequence (P61073 whole entry): as the sequence (P61073 whole entry, chain 1 of 2, other chains not shown) above

[15] = target: T5, CXCR4 and CD4 co-expressed on cells …; assay: cell-based or functional assay; remark: listed apart in the source
[16] = target: T6, human IL12Rβ1 extracellular domain Fc-fusion (human, UniProt P42701 24-545); assay: competition ELISA, coated IL-12 + 2 nM IL12Rβ1-Fc
T6 construct: extracellular domain; bought; also called IL12Rβ1-Fc; hIL-12Rβ1-Fc; not shown: Fc part, captured by anti-hIgG

[17] = target: T3, human IL12Rβ1, cell-expressed; assay: cell-based or functional assay
[18] = target: T6, human IL12Rβ1 extracellular domain …; assay: competition ELISA, coated IL-23 + 2 nM IL12Rβ1-Fc
[19] = target: T3, human IL12Rβ1, cell-expressed; assay: FACS, activated human T cells
[20] = target: T6, human IL12Rβ1 extracellular domain …; assay: competition ELISA, coated IL-12 + IL12Rβ1-Fc
[21] = target: T6, human IL12Rβ1 extracellular domain …; assay: SPR Biacore T100, captured IL12Rβ1-Fc
[22] = target: T4, human CD4, cell-expressed; assay: flow cytometry on MOLM-13 cells (CD4, no IL12R or IL23R), lower left panel
[23] = target: T6, human IL12Rβ1 extracellular domain …; assay: competition ELISA, coated IL-23 + IL12Rβ1-Fc
[24] = target: T3, human IL12Rβ1, cell-expressed; assay: cell-based or functional assay; remark: listed apart in the source

B1: IL23R#19: 150D02 (VHH)
VHH: EVQLVESGGGLVQPGGSLTLSCVASGRTFSTDVMGWFRQAPGKEREFVAAHRTSGISTVYAASVKGRFTISRDNAKNTVYLGMKSLKPEDTAVYVCAAGSDASGGYDYWGQGTLVTVSS
notes: also called LG150D02
[1]
  IC50, IL-23 dependent IL-17 release, PBMC D840: 100 nM
[2]
  IC50: 4.7 nM
[3]
  EC50: 20 nM
[4]
  binding result: no binding (tested: 250 nM)
[5]
  binding result: no binding (tested: 1E-6 M)
[6]
  Kd: 11 nM
  koff: 0.0081 s⁻¹
  kon: 730000 M⁻¹ s⁻¹
[7]
  IC50: 1.7 nM

B2: 281F12-35GS-03F11 (bispecific antibody)
chain: EVQLVESGGGLVQAGDSLRLSCAASGRAFSRYAMGWFRQAPGKEREFVAAIGWGPSKTNYADSVKGRFTISRDNAKNTVYLQMNTLKPEDTAVYSCAAKFVNTDSTWSRSEMYTYWGQGTQVTVSSGGGGSGGGGSGGGGSGGGGSGGGGSGGGGSGGGGSEVQLVESGGGSVQPGGSLTLSCGTSGRTFNVMGWFRQAPGKEREFVAAVRWSSTGIYYTQYADSVKSRFTISRDNAKNTVYLEMNSLKPEDTAVYYCAADTYNSNPARWDGYDFRGQGTQVTVSS
notes: also called CXCR4#2-35GS-CD4#8; CXCR4#2-CD4#8
[8]
  IC50, HIV-1 BaL (R5), PBMC: 2.46 nM
  IC50, HIV-1 NL4.3 (X4), MT-4: 0.24 nM
  IC50, HIV-1 NL4.3 (X4), PBMC: 0.37 nM
  IC50, HIV-1 NL4.3 (X4), U87: 2.67 nM
[9]
  EC50: 1.1 nM
[10]
  EC50: 11 nM
[11]
  IC50, HIV-1 HE, MT-4: 0.0906 nM
  IC50, HIV-1 NL4.3, MT-4: 0.187 nM
  IC50, HIV-2 ROD, MT-4: 0.3 nM
[12]
  IC50, HIV-1 NL4.3 wt, MT-4: 0.187 nM
  IC50, NL4.3 2G12 res., MT-4: 0.11 nM
  IC50, NL4.3 AMD-3100 res., MT-4: 1.13 nM
  IC50, NL4.3 CD4#8 res., MT-4: 0.31 nM
  IC50, NL4.3 CXCL-12res., MT-4: 0.433 nM
  IC50, NL4.3 CXCR4#2 res, MT-4: 1.4 nM
[13]
  EC50: 0.67 nM
[14]
  Fold increase vs CXCR4#2, Jurkat E6-1: 0.8 fold
  Fold increase vs CXCR4#2, MOLM-13: 146 fold
  IC50, SDF-1 chemotaxis, Jurkat E6-1: 110 nM
  IC50, SDF-1 chemotaxis, MOLM-13: 0.59 nM
[15]
  enhancement vs monovalent CD4#8, HIV-1 BaL, PBMC: ~200 fold

B3: IL12Rb1#30: 148C09 (VHH)
VHH: EVQLVESGGGLVQTGGSLRLSCAASGRTPRLVAMGWFRQTPGKEREFVGEIILSKGFTYYADSVKGRFTISRVNAKNTITMYLQMNSLKSEDTAVYYCAGRQNWSGSPARTNEYEYWGQGTLVTVSS
notes: also called IL12Rβ1#30; LG148C09
[16]
  IC50: 3.7 nM
[17]
  IC50, IL-17 release, PBMC D840: 35.5 nM
[18]
  IC50: 1.5 nM
[19]
  EC50: 1.3 nM
[20]
  IC50: 3.7 nM
[21]
  Kd: 3.3 nM
  koff: 0.0015 s⁻¹
  kon: 450000 M⁻¹ s⁻¹
[22]
  binding result: no binding (tested: 1E-6 M)
[23]
  IC50: 1.5 nM
[24]
  IC50, IL-12 induced IFNγ release, PBMC D840: 17 nM
  IC50, IL-12 induced IFNγ release, T cells D839: 140 nM
